How the values were obtained:
[1] = target: IGF-I receptor (cell line of the PathHunter IGF1R Functional Assay, DiscoverX) (UniProt P08069); test: cell-based or functional assay
[2] = target: insulin receptor (cell line of the PathHunter INSR Functional Assay, DiscoverX) (UniProt P06213); test: cell-based or functional assay

| activation of the IGF-I receptor (PathHunter, solvent group = 100%) at 5 nM [1] [%] | activation of the IGF-I receptor (PathHunter, solvent group = 100%) at 50 nM [1] [%] | activation of the insulin receptor (PathHunter, solvent group = 100%) at 5 nM [2] [%] | activation of the insulin receptor (PathHunter, solvent group = 100%) at 50 nM [2] [%] | activation of the IGF-I receptor (PathHunter, solvent group = 100%) at 0.5 nM [1] [%] | Substance |
| --- | --- | --- | --- | --- | --- |
| 109 | 109 | 104 | 111 | – | FLAG M2 antibody |
| 1240 | 4620 | – | – | 184 | Insulin (ligand) |
